How the values were obtained:
MBP-Mlh1;MBP-Mlh2 = target: T1, MBP-Mlh1;MBP-Mlh2 (Saccharomyces cerevisiae;Saccharomyces …, UniProt P38920;Q07980 1-769;1-695, |); test: EMSA; robust binding; EMSA: 25 mM HEPES pH 7.5, 0.1 ug/ul BSA, 60 mM NaCl, 10 nM DNA, 20 min at 30 C; 0.8% agarose in 1x TAE; Mer3 37.5-300 nM, Mlh1-Mlh2 20-150 nM; conditions: protein: recombinant;recombinant; tags: N-terminal 6xHis-MBP;N-terminal 6xHis-MBP; copies: 1;1; label: 5'-FAM on strand 1; synthetic D-loop of 4 annealed oligos
T1 sequence 1: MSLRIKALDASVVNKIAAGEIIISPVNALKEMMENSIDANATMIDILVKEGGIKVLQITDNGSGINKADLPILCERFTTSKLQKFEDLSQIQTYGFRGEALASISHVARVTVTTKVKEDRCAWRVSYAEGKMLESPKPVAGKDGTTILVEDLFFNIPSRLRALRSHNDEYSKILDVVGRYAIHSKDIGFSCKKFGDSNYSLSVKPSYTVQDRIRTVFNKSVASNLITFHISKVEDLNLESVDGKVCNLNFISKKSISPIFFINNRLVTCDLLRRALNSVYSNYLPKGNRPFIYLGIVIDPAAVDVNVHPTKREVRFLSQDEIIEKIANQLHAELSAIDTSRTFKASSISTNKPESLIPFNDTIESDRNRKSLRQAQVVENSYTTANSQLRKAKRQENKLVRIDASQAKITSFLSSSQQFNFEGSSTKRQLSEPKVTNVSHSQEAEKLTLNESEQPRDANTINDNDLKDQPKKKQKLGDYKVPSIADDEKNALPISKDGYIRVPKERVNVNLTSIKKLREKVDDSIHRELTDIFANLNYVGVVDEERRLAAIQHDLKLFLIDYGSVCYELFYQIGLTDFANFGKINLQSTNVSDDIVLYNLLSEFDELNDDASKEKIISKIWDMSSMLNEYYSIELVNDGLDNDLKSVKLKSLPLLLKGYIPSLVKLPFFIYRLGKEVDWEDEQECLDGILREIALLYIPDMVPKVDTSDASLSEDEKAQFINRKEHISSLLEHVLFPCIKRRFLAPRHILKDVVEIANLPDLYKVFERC
T1 sequence 2: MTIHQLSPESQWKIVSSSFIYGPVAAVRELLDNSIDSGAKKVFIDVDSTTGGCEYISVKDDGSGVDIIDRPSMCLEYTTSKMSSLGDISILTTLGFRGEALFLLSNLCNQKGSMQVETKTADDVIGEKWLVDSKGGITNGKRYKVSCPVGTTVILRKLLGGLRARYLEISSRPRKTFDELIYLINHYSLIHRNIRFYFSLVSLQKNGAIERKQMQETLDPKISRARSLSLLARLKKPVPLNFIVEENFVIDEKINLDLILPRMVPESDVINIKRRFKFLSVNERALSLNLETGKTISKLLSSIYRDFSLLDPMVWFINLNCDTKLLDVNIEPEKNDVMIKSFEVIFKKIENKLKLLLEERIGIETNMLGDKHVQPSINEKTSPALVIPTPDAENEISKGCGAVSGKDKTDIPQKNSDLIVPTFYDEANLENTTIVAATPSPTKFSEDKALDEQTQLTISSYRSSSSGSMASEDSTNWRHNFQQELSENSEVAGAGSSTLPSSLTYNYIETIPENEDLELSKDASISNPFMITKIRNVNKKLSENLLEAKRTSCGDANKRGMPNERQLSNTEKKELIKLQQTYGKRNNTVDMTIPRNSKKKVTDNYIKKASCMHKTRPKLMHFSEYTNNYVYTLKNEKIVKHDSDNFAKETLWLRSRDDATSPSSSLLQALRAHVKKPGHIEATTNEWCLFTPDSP

His-Mlh1;Strep-Mlh2 = target: T2, His-Mlh1;Strep-Mlh2 (Saccharomyces cerevisiae;Saccharomyces …, UniProt P38920;Q07980 1-769;1-695, |); test: as above; conditions: protein: recombinant;recombinant; tags: N-terminal 6xHis;N-terminal Twin-StrepII; copies: 1;1; label: 5'-FAM on strand 1; synthetic D-loop of 4 annealed oligos
T2 sequence 1: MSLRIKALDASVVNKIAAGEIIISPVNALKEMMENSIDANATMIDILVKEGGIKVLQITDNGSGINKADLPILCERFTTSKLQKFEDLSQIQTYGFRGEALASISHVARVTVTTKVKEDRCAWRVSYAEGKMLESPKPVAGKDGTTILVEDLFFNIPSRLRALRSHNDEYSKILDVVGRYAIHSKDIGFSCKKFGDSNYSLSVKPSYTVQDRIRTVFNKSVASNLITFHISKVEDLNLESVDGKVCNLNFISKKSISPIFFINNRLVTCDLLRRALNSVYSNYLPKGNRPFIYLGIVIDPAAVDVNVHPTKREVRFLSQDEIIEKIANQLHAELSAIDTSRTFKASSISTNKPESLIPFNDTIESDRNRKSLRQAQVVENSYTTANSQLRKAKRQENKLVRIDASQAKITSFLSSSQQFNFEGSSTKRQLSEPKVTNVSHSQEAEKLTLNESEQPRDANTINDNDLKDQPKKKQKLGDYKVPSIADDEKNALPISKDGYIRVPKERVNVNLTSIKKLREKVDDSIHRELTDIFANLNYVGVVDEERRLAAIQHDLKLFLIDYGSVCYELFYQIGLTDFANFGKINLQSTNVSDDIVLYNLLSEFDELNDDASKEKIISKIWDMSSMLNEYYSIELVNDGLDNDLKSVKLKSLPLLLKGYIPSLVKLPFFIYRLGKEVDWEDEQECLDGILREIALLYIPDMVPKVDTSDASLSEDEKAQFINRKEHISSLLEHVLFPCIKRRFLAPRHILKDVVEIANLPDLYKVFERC
T2 sequence 2: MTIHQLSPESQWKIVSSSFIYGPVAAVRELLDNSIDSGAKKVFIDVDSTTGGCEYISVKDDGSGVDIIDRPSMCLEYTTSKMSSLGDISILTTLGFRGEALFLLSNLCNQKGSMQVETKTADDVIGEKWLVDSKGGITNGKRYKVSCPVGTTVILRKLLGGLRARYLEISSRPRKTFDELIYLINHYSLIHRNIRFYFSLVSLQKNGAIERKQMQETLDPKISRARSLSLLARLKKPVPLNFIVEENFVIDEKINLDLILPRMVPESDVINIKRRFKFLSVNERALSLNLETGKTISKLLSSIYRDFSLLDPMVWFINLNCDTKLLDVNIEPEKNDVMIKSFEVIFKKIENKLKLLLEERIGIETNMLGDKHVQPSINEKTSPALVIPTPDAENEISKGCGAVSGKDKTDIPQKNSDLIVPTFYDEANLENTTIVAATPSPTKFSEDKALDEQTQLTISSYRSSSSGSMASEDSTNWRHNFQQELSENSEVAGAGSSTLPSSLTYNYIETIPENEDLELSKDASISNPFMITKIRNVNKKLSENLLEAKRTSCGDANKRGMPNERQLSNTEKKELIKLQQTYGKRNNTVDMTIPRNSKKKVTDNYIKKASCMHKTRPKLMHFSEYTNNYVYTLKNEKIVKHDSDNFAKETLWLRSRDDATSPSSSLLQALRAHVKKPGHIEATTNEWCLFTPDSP

Mer3 = target: T3, Mer3 (Saccharomyces cerevisiae, UniProt P51979 1-1187); test: EMSA; no Mg or ATP; high affinity; EMSA: 25 mM HEPES pH 7.5, 0.1 ug/ul BSA, 60 mM NaCl, 10 nM DNA, 20 min at 30 C; 0.8% agarose in 1x TAE; Mer3 37.5-300 nM, Mlh1-Mlh2 20-150 nM; conditions: protein: recombinant; tags: C-terminal Twin-StrepII; label: 5'-FAM on strand 1; synthetic D-loop of 4 annealed oligos
T3 sequence: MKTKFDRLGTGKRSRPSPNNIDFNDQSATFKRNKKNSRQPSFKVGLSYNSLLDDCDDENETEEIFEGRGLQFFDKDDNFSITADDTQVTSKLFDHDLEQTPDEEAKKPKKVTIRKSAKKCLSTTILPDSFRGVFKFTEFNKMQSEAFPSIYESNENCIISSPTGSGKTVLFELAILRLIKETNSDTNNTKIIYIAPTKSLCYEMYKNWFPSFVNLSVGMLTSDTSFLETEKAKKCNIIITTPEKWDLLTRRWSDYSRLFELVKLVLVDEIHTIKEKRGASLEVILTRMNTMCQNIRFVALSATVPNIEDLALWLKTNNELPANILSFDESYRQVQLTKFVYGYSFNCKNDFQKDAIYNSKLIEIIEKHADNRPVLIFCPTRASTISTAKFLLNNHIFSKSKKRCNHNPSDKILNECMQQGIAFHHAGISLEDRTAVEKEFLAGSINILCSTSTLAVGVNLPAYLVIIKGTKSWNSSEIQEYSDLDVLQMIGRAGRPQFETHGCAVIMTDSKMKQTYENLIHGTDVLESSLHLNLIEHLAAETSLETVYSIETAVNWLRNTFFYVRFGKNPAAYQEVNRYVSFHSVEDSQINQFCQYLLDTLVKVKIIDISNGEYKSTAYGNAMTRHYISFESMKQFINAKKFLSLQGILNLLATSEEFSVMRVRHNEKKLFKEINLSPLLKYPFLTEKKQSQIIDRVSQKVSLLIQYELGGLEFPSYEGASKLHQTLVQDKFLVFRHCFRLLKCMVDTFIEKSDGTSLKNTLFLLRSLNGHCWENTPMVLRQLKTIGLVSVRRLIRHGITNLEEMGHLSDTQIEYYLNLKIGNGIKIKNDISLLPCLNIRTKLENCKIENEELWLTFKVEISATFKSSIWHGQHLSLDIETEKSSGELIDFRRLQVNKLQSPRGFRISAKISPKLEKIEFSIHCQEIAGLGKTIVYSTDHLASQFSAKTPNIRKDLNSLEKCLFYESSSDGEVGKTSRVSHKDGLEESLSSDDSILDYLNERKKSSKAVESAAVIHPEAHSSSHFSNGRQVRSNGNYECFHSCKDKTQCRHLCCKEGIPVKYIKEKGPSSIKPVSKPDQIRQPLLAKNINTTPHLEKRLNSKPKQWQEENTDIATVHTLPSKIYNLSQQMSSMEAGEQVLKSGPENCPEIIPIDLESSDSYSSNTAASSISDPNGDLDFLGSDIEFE

Measured: binding result

B1: D-loop (1253-T, 315, 320, X12-3SC) (mixed)
DNA 1: GGGTCAACGTGGGCAAAGATGTCCTAGCAATGTAATCGTCTATGACGTT
DNA 2: AACGTCATAGACGATGATCCGATGCATATCCGCCTGCCCACGTTGACCC
DNA 3: GCGATAGTCTCTAGACAGCATGTCCTAGCAATACATTGCTAGGACATCTT
DNA 4: TTGCTAGGACATGCTGTCTAGAGACTATCGC
binds: MBP-Mlh1;MBP-Mlh2 | His-Mlh1;Strep-Mlh2 | Mer3

Reference: article PMC10201424, “Biochemical characterisation of Mer3 helicase interactions and the protection of meiotic recombination intermediates” (Nucleic Acids Research, 2022)
